Results taken from PMC8782670, “Production and Characterization of RNA Aptamers Specific for Amyloid Fibril Epitopes”.

Target: beta2-microglobulin, monomer at pH 3.6 (biotinylated, partially folded) (human, UniProt P61769 21-119)
Assay: SPR; pH 3.6, 250 mM NaCl; apparent, 1:1 fit; SPR: Buffer A pH 3.6, 250 mM NaCl, 25 C, 0.5 uM RNA; dot blot: Buffer A pH 7.0, 1 M NaCl, 10 ug/ml BSA and yeast tRNA, 21 C (Buffer A composition not given)
Details: protein: recombinant; tags: biotin; interrupted stem-loop (Mfold)

beta2-microglobulin, monomer at pH 3.6 (biotinylated, partially folded), sequence (P61769 21-119): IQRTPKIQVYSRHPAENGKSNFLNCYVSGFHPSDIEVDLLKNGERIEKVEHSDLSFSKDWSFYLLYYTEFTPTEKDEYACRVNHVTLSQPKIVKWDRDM

B1: M-2 (structured_RNA)
RNA: GGGCCAAGCUUGCAUGCCUGCAGUUGGUUACGCGUACAGUGAAACUCGGAAAGUUGAAGGGCCAAAUGGGAACGGUACCGAGCUCAGGUUCCC
- Kd: ~10 nM
